One block for each binder: values may come before it.
B2: Nup85 (natural protein, S. cerevisiae, UniProt P46673 1-744, looked up)
chain: MTIDDSNRLLMDVDQFDFLDDGTAQLSNNKTDEEEQLYKRDPVSGAILVPMTVNDQPIEKNGDKMPLKFKLGPLSYQNMAFITAKDKYKLYPVRIPRLDTSKEFSAYVSGLFEIYRDLGDDRVFNVPTIGVVNSNFAKEHNATVNLAMEAILNELEVFIGRVKDQDGRVNRFYELEESLTVLNCLRTMYFILDGQDVEENRSEFIESLLNWINRSDGEPDEEYIEQVFSVKDSTAGKKVFETQYFWKLLNQLVLRGLLSQAIGCIERSDLLPYLSDTCAVSFDAVSDSIELLKQYPKDSSSTFREWKNLVLKLSQAFGSSATDISGELRDYIEDFLLVIGGNQRKILQYSRTWYESFCGFLLYYIPSLELSAEYLQMSLEANVVDITNDWEQPCVDIISGKIHSILPVMESLDSCTAAFTAMICEAKGLIENIFEGEKNSDDYSNEDNEMLEDLFSYRNGMASYMLNSFAFELCSLGDKELWPVAIGLIALSATGTRSAKKMVIAELLPHYPFVTNDDIEWMLSICVEWRLPEIAKEIYTTLGNQMLSAHNIIESIANFSRAGKYELVKSYSWLLFEASCMEGQKLDDPVLNAIVSKNSPAEDDVIIPQDILDCVVTNSMRQTLAPYAVLSQFYELRDREDWGQALRLLLLLIEFPYLPKHYLVLLVAKFLYPIFLLDDKKLMDEDSVATVIEVIETKWDDADEKSSNLYETIIEADKSLPSSMATLLKNLRKKLNFKLCQAFM

What was measured:
Nup85 [1] = target: B2; assay: crystal structure
Nup120 [2] = target: T1, Nup120 (S. cerevisiae, UniProt P35729 1-1037); assay: crystal structure
T1 sequence: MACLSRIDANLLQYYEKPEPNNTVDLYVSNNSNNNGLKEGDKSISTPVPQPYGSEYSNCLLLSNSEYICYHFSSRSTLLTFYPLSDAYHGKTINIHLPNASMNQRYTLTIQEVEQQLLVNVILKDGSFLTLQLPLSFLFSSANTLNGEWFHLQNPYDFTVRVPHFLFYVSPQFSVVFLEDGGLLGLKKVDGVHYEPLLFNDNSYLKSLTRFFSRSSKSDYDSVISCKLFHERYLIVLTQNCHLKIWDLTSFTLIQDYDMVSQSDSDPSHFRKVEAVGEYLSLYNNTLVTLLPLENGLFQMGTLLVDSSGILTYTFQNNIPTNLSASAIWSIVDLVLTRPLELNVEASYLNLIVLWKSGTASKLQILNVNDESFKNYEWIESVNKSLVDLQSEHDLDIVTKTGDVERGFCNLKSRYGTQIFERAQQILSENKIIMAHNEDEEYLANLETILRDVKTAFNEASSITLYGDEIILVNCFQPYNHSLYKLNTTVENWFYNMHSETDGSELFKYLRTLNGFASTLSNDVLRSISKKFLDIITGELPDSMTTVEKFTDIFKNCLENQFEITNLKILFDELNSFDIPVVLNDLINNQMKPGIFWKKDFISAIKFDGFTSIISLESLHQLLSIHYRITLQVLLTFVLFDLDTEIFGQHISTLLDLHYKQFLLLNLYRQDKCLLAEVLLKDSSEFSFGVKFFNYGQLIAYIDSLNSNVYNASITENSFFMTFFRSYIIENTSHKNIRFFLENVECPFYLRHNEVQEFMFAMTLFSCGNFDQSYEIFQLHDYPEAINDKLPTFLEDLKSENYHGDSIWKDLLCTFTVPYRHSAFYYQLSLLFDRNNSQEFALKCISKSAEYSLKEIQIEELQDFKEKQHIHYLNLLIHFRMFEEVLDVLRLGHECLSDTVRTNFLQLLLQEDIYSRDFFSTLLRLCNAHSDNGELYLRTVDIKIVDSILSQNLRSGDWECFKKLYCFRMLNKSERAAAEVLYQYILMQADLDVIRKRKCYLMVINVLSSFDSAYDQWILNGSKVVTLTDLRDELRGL

Nup145C = Nup145C (S. cerevisiae, UniProt P49687); assay: crystal structure
Nup145C, sequence (P49687 680-1317): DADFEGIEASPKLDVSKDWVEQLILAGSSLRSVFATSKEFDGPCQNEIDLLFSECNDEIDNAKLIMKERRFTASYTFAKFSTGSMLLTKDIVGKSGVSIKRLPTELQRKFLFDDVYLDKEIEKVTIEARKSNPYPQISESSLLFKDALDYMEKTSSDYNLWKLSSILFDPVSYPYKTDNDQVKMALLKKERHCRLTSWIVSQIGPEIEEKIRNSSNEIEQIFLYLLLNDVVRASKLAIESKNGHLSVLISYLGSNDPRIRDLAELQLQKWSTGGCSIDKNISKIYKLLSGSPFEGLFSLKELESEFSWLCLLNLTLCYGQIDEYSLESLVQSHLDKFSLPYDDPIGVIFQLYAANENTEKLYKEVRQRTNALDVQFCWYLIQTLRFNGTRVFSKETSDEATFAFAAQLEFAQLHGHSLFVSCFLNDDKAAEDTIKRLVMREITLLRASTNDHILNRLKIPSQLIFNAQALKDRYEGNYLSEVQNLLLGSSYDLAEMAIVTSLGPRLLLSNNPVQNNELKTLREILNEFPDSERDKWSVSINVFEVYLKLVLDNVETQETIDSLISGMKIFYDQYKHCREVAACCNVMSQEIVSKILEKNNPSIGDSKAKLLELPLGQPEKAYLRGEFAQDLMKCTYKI

Nup85 [3] = target: Nup85 (S. cerevisiae, UniProt P46673); assay: crystal structure
Nup120 [4] = target: T1, Nup120; assay: SEC

binding result (Nup85 [1]): binds
B1: Seh1 (natural protein, S. cerevisiae)
chain: MQPFDSGHDDLVHDVVYDFYGRHVATCSSDQHIKVFKLDKDTSNWELSDSWRAHDSSIVAIDWASPEYGRIIASASYDKTVKLWEEDPDQEECSGRRWNKLCTLNDSKGSLYSVKFAPAHLGLKLACLGNDGILRLYDALEPSDLRSWTLTSEMKVLSIPPANHLQSDFCLSWCPSRFSPEKLAVSALEQAIIYQRGKDGKLHVAAKLPGHKSLIRSISWAPSIGRWYQLIATGCKDGRIRIFKITEKLSPLASEESLTNSNMFDNSADVDMDAQGRSDSNTEEKAELQSNLQVELLSEHDDHNGEVWSVSWNLTGTILSSAGDDGKVRLWKATYSNEFKCMSVITAQQ

Binder: B2
binding result (Nup120 [2]): binds

binding result (Nup145C): binds | binding result (Nup85 [3]): binds
B3: synthetic antibody sAB-57 (Fab, V domains shown)
VH: EVQLVESGGGLVQPGGSLRLSCAASGFNVSYSSIHWVRQAPGKGLEWVASIYPYYGSTSYADSVKGRFTISADTSKNTAYLQMNSLRAEDTAVYYCARTGMYFGFFHHSWSNAALDYWGQGTLVTVSS
VL: DIQMTQSPSSLSASVGDRVTITCRASQSVSSAVAWYQQKPGKAPKLLIYSASSLYSGVPSRFSGSRSGTDFTLTISSLQPEDFATYYCQQISQYPITFGQGTKVEIK

binding result (Nup120 [4]): binds
B4: Nup85 C-terminal domain (domain or fragment, S. cerevisiae, UniProt P46673 545-744, looked up)
chain: QMLSAHNIIESIANFSRAGKYELVKSYSWLLFEASCMEGQKLDDPVLNAIVSKNSPAEDDVIIPQDILDCVVTNSMRQTLAPYAVLSQFYELRDREDWGQALRLLLLLIEFPYLPKHYLVLLVAKFLYPIFLLDDKKLMDEDSVATVIEVIETKWDDADEKSSNLYETIIEADKSLPSSMATLLKNLRKKLNFKLCQAFM
